According to US20250145730A1 (SHANGHAI BAO PHARMACEUTICALS, published 2025):

Target: T1, human FcRn (human, UniProt P55899 24-297; P61769 21-119)
T1 construct: also called hFcRn
Assay: BLI, acidic conditions, against the wild-type antibody

T1 sequence (P55899 24-297 limits assumed, chain 1 of 2): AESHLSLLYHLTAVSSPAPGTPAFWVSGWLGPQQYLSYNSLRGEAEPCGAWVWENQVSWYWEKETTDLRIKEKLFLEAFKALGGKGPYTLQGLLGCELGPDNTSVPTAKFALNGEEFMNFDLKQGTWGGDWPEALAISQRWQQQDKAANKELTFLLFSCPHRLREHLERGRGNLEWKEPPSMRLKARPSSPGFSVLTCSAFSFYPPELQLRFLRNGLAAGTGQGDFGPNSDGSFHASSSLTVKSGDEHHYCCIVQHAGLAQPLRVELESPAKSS
T1 sequence (P61769 21-119 limits assumed, chain 2 of 2): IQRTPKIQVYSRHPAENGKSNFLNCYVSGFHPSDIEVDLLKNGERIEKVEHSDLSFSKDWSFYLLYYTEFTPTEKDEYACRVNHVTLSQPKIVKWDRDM

B1: Antibody 8 (antibody, human IgG1, kappa)
heavy: not shown
light: DIVMTQSHLSMSTSLGDPVSITCKASQDVSTVVAWYQQKPGQSPRRLIYSASYRYIGVPDRFTGSGAGTDFTFTISSVQAEDLAVYYCQQHYSPPYTFGGGTKLEIKRTVAAPSVFIFPPSDEQLKSGTASVVCLLNNFYPREAKVQWKVDNALQSGNSQESVTEQDSKDSTYSLSSTLTLSKADYEKHKVYACEVTHQGLSSPVTKSFNRGEC
notes: also called antibody 3-Fucose
B1 was tested, and the “fold of the wild-type antibody's affinity” value was at most 3 fold.
